These results are taken from PMC11742450, “Engineering a membrane protein chaperone to ameliorate the proteotoxicity of mutant huntingtin” (Nature Communications, 2025).

This test concerns the target T1, His6-hsPEX19-WT (human, UniProt P40855 1-299).
T1 construct: human PEX19 (hsPEX19); the human PEX19 gene cloned into pET-33b; Made in E. coli, so probably not farnesylated (surmise); also called human PEX19; His6-PEX19; source: E. coli BL21 Star (DE3), purified (Ni-NTA)
T1 sequence (looked up): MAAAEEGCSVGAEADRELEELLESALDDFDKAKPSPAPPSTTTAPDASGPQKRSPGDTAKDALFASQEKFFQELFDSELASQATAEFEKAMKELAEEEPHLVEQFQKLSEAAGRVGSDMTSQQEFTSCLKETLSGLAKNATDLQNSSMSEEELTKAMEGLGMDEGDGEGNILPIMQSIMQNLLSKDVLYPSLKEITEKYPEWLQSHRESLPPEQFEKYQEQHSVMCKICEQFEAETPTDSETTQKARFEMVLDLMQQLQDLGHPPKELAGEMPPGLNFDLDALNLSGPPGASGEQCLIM
Kind of test: pull-down; His6-PEX19 pulldown with PEX26; input, flowthrough and elution analysed by Western blot with Strep (PEX26) and PEX19 antibodies; hsPEX19 at about 3-fold the endogenous concentration. To be noted: both partners purified. A general note: In western blotting, separated proteins are transferred to a membrane and probed.

B1: 2 × Strep-SUMO-PEX26 (237-305aa) (domain or fragment, UniProt Q7Z412 237-305, looked up)
chain: RQLWDSAVSHFFSLPFKKSLLAALILCLLVVRFDPASPSSLHFLYKLAQLFRWIRKAAFSRLYQLRIRD
In the case of B1, the binding result is listed as “binds”.
